Test results from IntAct's records for PubMed 31324769.

Columns and labels:
[1] = biological target: mon2_human MON2 (UniProt Q7Z3U7)
[2] = biological target: klc2_human KLC2 (UniProt Q9H0B6)
Sequence of klc2_human KLC2 (Q9H0B6 whole entry): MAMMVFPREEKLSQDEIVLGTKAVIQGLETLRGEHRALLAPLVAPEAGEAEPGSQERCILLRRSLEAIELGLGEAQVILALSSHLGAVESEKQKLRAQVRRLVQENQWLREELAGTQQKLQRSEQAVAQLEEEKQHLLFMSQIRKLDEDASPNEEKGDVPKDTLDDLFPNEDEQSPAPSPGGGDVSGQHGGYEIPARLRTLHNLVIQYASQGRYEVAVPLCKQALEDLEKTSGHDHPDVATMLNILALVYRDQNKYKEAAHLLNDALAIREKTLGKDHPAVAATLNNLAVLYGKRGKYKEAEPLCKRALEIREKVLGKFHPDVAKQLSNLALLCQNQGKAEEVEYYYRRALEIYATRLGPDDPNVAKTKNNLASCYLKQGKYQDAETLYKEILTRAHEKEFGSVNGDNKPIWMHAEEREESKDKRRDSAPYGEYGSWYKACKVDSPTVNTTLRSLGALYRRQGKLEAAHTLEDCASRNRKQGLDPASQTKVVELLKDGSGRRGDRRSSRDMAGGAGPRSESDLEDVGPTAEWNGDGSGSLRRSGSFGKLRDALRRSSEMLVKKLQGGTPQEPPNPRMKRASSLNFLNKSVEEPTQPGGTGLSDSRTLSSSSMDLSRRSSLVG

Sequence of mon2_human MON2 (Q7Z3U7 whole entry): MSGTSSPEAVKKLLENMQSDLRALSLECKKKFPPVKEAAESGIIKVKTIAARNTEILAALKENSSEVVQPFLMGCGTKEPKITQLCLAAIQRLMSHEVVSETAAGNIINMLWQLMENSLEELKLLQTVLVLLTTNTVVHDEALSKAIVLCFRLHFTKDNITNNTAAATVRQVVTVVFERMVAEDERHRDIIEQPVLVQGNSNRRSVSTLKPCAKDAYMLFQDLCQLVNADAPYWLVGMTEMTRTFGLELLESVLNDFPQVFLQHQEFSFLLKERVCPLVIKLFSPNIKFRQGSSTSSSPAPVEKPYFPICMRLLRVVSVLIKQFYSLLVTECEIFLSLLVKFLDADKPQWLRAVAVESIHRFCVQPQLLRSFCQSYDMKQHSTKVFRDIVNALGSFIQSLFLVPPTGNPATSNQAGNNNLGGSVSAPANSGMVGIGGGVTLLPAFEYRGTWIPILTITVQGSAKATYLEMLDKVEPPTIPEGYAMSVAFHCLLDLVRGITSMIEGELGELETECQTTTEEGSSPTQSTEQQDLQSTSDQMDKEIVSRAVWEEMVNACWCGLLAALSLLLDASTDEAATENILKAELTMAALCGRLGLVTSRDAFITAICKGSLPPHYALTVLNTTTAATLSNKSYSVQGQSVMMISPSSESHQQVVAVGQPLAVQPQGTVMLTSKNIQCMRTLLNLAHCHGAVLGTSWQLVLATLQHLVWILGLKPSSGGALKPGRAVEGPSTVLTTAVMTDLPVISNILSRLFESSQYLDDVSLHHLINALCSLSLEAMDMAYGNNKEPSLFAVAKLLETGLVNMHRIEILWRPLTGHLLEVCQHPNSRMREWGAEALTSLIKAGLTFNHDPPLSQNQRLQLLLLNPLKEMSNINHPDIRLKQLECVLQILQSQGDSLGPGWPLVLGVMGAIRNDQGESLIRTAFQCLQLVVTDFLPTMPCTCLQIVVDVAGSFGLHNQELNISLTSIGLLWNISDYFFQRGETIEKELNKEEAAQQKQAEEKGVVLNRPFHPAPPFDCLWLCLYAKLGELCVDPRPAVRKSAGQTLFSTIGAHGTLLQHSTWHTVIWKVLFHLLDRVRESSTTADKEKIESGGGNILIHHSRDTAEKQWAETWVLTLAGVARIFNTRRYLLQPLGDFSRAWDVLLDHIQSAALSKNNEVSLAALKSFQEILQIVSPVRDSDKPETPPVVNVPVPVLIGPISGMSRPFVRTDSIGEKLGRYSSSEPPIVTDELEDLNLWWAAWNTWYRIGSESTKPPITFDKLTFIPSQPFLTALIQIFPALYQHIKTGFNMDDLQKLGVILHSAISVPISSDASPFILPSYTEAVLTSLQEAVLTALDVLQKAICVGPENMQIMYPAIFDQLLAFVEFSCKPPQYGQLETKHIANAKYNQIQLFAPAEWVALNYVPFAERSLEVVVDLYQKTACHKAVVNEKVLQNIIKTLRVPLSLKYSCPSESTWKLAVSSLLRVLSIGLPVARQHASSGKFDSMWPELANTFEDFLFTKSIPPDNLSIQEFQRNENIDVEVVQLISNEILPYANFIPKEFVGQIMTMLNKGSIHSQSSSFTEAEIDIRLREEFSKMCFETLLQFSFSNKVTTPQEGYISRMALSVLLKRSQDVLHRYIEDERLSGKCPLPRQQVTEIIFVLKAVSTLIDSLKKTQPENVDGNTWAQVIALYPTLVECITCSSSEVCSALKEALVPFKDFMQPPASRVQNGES

| effect of a mutation on the interaction [1] | effect of a mutation on the interaction [2] | Substance |
| --- | --- | --- |
| with no effect | – | Protein DOP1A (Homo sapiens), Q5JWR5 L2178A;K2179A;R2180A;L2181A |
| – | disrupting interaction strength | Protein DOP1A (Homo sapiens), Q5JWR5 W34A |
| – | disrupting interaction strength | Protein DOP1A (Homo sapiens), Q5JWR5 W186A |
